Measured values as given in the Immune Epitope Database (IEDB).

Assays:
HLA-A*02:03 = assay: IEDB peptide-MHC binding, purified MHC/direct/fluorescence; filed as Kd, often an IC50 or EC50 that approximates it; ≥ and ≤ were set here for values at or beyond the usual limits of such assays
HLA-A*02:11 = assay: as above
HLA-A*02:12 = assay: as above
HLA-A*02:16 [1] = assay: as above; conditions: source organism: Zaire ebolavirus
HLA-A*02:19 [2] = assay: as above
HLA-A*23:01 = assay: as above
HLA-A*24:03 = assay: as above
HLA-A*29:02 = assay: as above
HLA-A*68:02 = assay: as above
HLA-B*27:05 = assay: as above; conditions: source organism: Ebola virus - Gabon (1994-1997)
HLA-A*02:01 = assay: IEDB peptide-MHC binding, purified MHC/competitive/fluorescence; filed as Kd, often an IC50 or EC50 that approximates it; ≥ and ≤ were set here for values at or beyond the usual limits of such assays
HLA-A*26:01 = assay: as above
HLA-A*69:01 = assay: as above
HLA-B*15:01 = assay: as above
HLA-B*15:17 = assay: as above
HLA-B*18:01 = assay: as above
HLA-B*39:01 = assay: as above
HLA-B*46:01 = assay: as above
HLA-B*51:01 = assay: as above
HLA-B*57:01 = assay: as above
HLA-A*01:01 = assay: IEDB peptide-MHC binding, purified MHC/direct/fluorescence; filed as Kd, often an IC50 or EC50 that approximates it; ≥ and ≤ were set here for values at or beyond the usual limits of such assays; conditions: source organism: Reston ebolavirus - Reston
HLA-A*03:01 [3] = assay: as above
HLA-B*27:03 = assay: IEDB peptide-MHC binding, purified MHC/competitive/fluorescence; filed as Kd, often an IC50 or EC50 that approximates it; ≥ and ≤ were set here for values at or beyond the usual limits of such assays
HLA-B*15:02 = assay: as above
HLA-A*11:01 = assay: IEDB peptide-MHC binding, purified MHC/direct/fluorescence; filed as Kd, often an IC50 or EC50 that approximates it; ≥ and ≤ were set here for values at or beyond the usual limits of such assays; conditions: source organism: Entamoeba histolytica
HLA-A*31:01 = assay: IEDB peptide-MHC binding, purified MHC/competitive/fluorescence; filed as Kd, often an IC50 or EC50 that approximates it; ≥ and ≤ were set here for values at or beyond the usual limits of such assays; conditions: source organism: Entamoeba histolytica
HLA-A*32:07 = assay: as above; conditions: source organism: Entamoeba histolytica
HLA-B*15:42 = assay: as above; conditions: source organism: Entamoeba histolytica
HLA-B*45:06 = assay: as above; conditions: source organism: Entamoeba histolytica
HLA-B*83:01 = assay: as above; conditions: source organism: Entamoeba histolytica
HLA-A*03:01 [4] = assay: as above; conditions: source organism: Zaire ebolavirus
HLA-C*15:02 = assay: IEDB peptide-MHC binding, purified MHC/direct/fluorescence; filed as Kd, often an IC50 or EC50 that approximates it; ≥ and ≤ were set here for values at or beyond the usual limits of such assays; conditions: source organism: Human immunodeficiency virus type 1 (Z-84 ISOLATE)
HLA-A*02:16 [5] = assay: IEDB peptide-MHC binding, purified MHC/competitive/fluorescence; filed as Kd, often an IC50 or EC50 that approximates it; ≥ and ≤ were set here for values at or beyond the usual limits of such assays; conditions: source organism: Human immunodeficiency virus type 1 (Z-84 ISOLATE)
HLA-A*02:19 [6] = assay: as above; conditions: source organism: Human immunodeficiency virus type 1 (Z-84 ISOLATE)
[7] = source organism: Zaire ebolavirus
[8] = source organism: Reston ebolavirus
[9] = source organism: Vibrio vulnificus CMCP6
[10] = source organism: Human immunodeficiency virus type 1 (Z-84 ISOLATE)

Measured: Kd

GRYNLISPK
≥ 20 µM: HLA-A*02:03; [7] | HLA-A*02:11; [7] | HLA-A*02:12; [7] | HLA-A*02:16 [1] | HLA-A*02:19 [2]; [7] | HLA-A*23:01; [7] | HLA-A*24:03; [7] | HLA-A*29:02; [7] | HLA-A*68:02; [7] | HLA-A*02:01; [7] | HLA-A*26:01; [7] | HLA-A*69:01; [7] | HLA-B*15:01; [7] | HLA-B*15:17; [7] | HLA-B*18:01; [7] | HLA-B*39:01; [7] | HLA-B*46:01; [7] | HLA-B*51:01; [7] | HLA-B*57:01; [7]
0.0746 µM: HLA-B*27:05

ITDEINQIK
≥ 20 µM: HLA-A*01:01 | HLA-A*02:03; [8] | HLA-A*02:11; [8] | HLA-A*02:12; [8] | HLA-A*02:19 [2]; [8] | HLA-A*03:01 [3]; [8] | HLA-A*23:01; [8] | HLA-A*24:03; [8] | HLA-A*29:02; [8] | HLA-A*68:02; [8] | HLA-A*02:01; [8] | HLA-A*26:01; [8] | HLA-A*69:01; [8] | HLA-B*15:01; [8] | HLA-B*15:17; [8] | HLA-B*18:01; [8] | HLA-B*27:03; [8] | HLA-B*39:01; [8] | HLA-B*46:01; [8] | HLA-B*51:01; [8] | HLA-B*57:01; [8]

NMQESSKSF
0.0643 µM: HLA-B*15:02; source organism: Orientia tsutsugamushi str. Ikeda

NTFAAWLPM
0.193 µM: HLA-B*15:02; source organism: Giardia lamblia ATCC 50803

PYWQGIWDK
0.006 µM: HLA-A*23:01; [9]
0.013 µM: HLA-A*24:03; [9]

RMYWGVNPK
0.0014 µM: HLA-A*03:01 [3]; source organism: Entamoeba histolytica
0.0016 µM: HLA-A*11:01
0.0139 µM: HLA-A*32:07
≥ 5 µM: HLA-B*15:42 | HLA-B*45:06 | HLA-B*83:01
≤ 0.001 µM: HLA-A*31:01

SLLHESTLK
≥ 20 µM: HLA-A*02:03; [7] | HLA-A*02:11; [7] | HLA-A*02:12; [7] | HLA-A*02:16 [1] | HLA-A*02:19 [2]; [7] | HLA-A*23:01; [7] | HLA-A*24:03; [7] | HLA-A*29:02; [7] | HLA-A*68:02; [7] | HLA-A*02:01; [7] | HLA-A*26:01; [7] | HLA-A*69:01; [7] | HLA-B*15:01; [7] | HLA-B*15:17; [7] | HLA-B*18:01; [7] | HLA-B*27:03; [7] | HLA-B*39:01; [7] | HLA-B*46:01; [7] | HLA-B*51:01; [7] | HLA-B*57:01; [7]
0.0241 µM: HLA-A*03:01 [4]

WLRAMPPRM
≥ 20 µM: HLA-B*15:02; source organism: Vibrio vulnificus YJ016

YIKIFIMIV
≥ 20 µM: HLA-C*15:02 | HLA-A*02:01; [10] | HLA-A*02:16 [5] | HLA-A*02:19 [6] | HLA-A*69:01; [10]
